# Assay results: patent publication US11959098B2, “Methods and culture media for culturing pluripotent stem cells” (Technion Research & Development Foundation Limited, priority 2010, dated 2024)
# “Also recorded” adds a separate entry of the source.
# Experiments:
# [1] = test system: C2 cell line (iPS cell line derived from foreskin fibroblast); experiment: Endodermal differentiation of pluripotent stem cells cultured in suspension; assay type: cell-based, human
# Description: Differentiation into endodermal cells—Cells cultured in suspension with cell clumps from C2 cell line (iPS cell line derived from foreskin fibroblast) were cultured in suspension for at least 10 passages. Then the factors were removed from the culture medium and the cells were exposed to 10 ng/ml Activin for 48 hours, in medium containing cAMP increasers such as foreskulin, 8-bromocAMP, GABA, IBMX and DBC. Ten days later the cells were analyzed for endodermal markers. […] As shown in FIGS. 10A-10B the differentiated cells express PDX1, a transcription factor indicating differentiation into endoderm lineage, mainly into β-cells.
# C2 cells were cultured for more than 10 passages as single cells in suspension in the pCM100F culture medium. For endoderm differentiation, the bFGF and the IL6RIL6 chimera were removed from the culture medium and activin A at concentration of 10 ng/ml was added for 48 hours in a suspension culture. 10 days after exposure to activin A, the cells were plated on Matrigel™ or HFF (human foreskin fibroblast) matrix, or were cultured in a 3-dimensional culture system (in suspension) and were stained to PDX1.
# [2] = test system: hESCs cultured in suspension; experiment: Neural differentiation of pluripotent stem cells cultured in suspension; assay type: cell-based, human; conditions: hESC single cells; retinoic acid (10^−3 M) or Noggin (10 ngr/ml); three weeks after induction
# Description: Neural differentiation—To induce neural differentiation single cells cultured in suspension were transferred to a medium without bFGF and the IL6RIL6 chimera. Either retinoic acid (10^−3 M) or Noggin (10 ngr/ml) were added for three to seven days. Three weeks after differentiation induction, the cells were plated for staining with fibronectin. The cells were stained for O4 (oligodendrocytes marker), GFAP (Glial fibrillary acidic protein), nestin and β-tubulin.
# Differentiation into neuronal cells—Cells from the four tested cell lines (I3, I4, I6 and H9.2) were cultured in suspension with cell clump for at least 25 passages. Then, the factors were removed from the culture medium and 5×10^−5 M Retinoic acid was added for 21 Days. The cells were then transferred to fibronectin coated plates and cultured for additional 5 days before harvesting the cells for analysis.
# Human ESCs which are cultured in suspension as single cells are capable of differentiating into the neuronal cell linage—To induce neural differentiation, hESCs which are cultured in suspension as single cells were transferred to a neuronal differentiating medium (without bFGF and the IL6RIL6 chimera) which included either retinoic acid (10^−3 M) or Noggin (10 ngr/ml) as described under “General Materials and Experimental Methods” hereinabove. […]
# [3] = C2 clumps, 10 ng/ml for 48 hours with cAMP increasers, ten days later
Molecule,"PDX1 expression (immunofluorescence) [1, 3]","Sox17 expression (quantitative RT-PCR) versus non-treated controls [1, 3]","SOX 17 gene expression (real time PCR) ([1]; C2 single cells, 10 ng/ml for 48 hours in suspension)","PDX1 expression (immunostaining) ([1]; C2 single cells, 10 ng/ml for 48 hours, 10 days after exposure)","differentiation into neuronal progenitor cells (GFAP, O4, β-Tubulin, Nestin staining) [2]"
"activin A: activin A at concentration of 10 ng/ml added for endoderm differentiation (protein, UniProt P08476 311-426, looked up, Inhibin beta A chain) Inhibin beta A chain: GLECDGKVNICCKKQFFVSFKDIGWNDWIIAPSGYHANYCEGECPSHIAGTSGSSLSFHSTVINHYRMRGHSPFANLKSCCVPTKLRPMSMLYYDDGQNIIKKDIQNMIVEECGCS",express PDX1,significant increase in Sox17 expression,an increase could be observed during differentiation from day 2 to 10,all cells which are stained by DAPI (nuclear staining) are also stained with PDX1; also recorded: expression of PDX1 in the cells,
"Noggin: Noggin (10 ngr/ml) added to induce neural differentiation (protein, UniProt Q13253 28-232, looked up) Noggin: QHYLHIRPAPSDNLPLVDLIEHPDPIFDPKEKDLNETLLRSLLGGHYDPGFMATSPPEDRPGGGGGAAGGAEDLAELDQLLRQRPSGAMPSEIKGLEFSEGLAQGKKQRLSKKLRRKLQMWLWSQTFCPVLYAWNDLGSRFWPRYVKVGSCFSKRSCSVPEGMVCKPSKSVHLTVLRWRCQRRGGQRCGWIPIQYPIISECKCSC",,,,,differentiated into neuronal progenitor cells
